According to article PMC7955110, “Cryo-EM structure of amyloid fibrils formed by the entire low complexity domain of TDP-43” (Nature Communications, 2021):

Target: the molecule itself
Experiment: cryo-EM structure; amyloid fibrils formed at 30 uM protein in 20 mM sodium acetate pH 4.0, 37 °C with rotation, four rounds of sequential seeding (10% w/w sonicated fibrils); helical reconstruction of twisted fibrils, 3.2 Å

B1: TDP-43 low complexity domain (transactive response DNA-binding protein of 43 kDa, C-terminal low-complexity domain) (domain or fragment, UniProt Q13148 267-414, looked up)
chain: NRQLERSGRFGGNPGGFGNQGGFGNSRGGGAGLGNNQGSNMGGGMNFGAFSINPAMMAAAQAALQSSWGMMGMLASQQNQSGPSGNNQNQGNMQREPNQAFGSGNNSYSGSNSGAAIGWGSASNAGSGSGFNGGFGSSMDSKSSGWGM
notes: TDP-43, entire C-terminal low-complexity domain; Wild-type, non-phosphorylated; The assayed form is an amyloid fibril: a single protofilament of stacked subunits with an ordered core of residues 276-414; Five chains were built in the model; also called TDP-43 LCD; LCD; source: Rosetta (DE3) pLysS cells, purified (Ni-NTA in 8 M urea, HPLC on a C4 column), lyophilized
B1: binds.
